Experimental data taken from article doi:10.1101/2020.05.08.084087 (bioRxiv, 2020).
Numbering of substitutions follows the chain as printed.

Tests used:
ABCB1-YFP E1.007A = target: T1, ABCB1-YFP E1.007A (Arabidopsis, UniProt Q9ZR72 1-1286, E1.007A); test: FRET or BRET
T1 sequence: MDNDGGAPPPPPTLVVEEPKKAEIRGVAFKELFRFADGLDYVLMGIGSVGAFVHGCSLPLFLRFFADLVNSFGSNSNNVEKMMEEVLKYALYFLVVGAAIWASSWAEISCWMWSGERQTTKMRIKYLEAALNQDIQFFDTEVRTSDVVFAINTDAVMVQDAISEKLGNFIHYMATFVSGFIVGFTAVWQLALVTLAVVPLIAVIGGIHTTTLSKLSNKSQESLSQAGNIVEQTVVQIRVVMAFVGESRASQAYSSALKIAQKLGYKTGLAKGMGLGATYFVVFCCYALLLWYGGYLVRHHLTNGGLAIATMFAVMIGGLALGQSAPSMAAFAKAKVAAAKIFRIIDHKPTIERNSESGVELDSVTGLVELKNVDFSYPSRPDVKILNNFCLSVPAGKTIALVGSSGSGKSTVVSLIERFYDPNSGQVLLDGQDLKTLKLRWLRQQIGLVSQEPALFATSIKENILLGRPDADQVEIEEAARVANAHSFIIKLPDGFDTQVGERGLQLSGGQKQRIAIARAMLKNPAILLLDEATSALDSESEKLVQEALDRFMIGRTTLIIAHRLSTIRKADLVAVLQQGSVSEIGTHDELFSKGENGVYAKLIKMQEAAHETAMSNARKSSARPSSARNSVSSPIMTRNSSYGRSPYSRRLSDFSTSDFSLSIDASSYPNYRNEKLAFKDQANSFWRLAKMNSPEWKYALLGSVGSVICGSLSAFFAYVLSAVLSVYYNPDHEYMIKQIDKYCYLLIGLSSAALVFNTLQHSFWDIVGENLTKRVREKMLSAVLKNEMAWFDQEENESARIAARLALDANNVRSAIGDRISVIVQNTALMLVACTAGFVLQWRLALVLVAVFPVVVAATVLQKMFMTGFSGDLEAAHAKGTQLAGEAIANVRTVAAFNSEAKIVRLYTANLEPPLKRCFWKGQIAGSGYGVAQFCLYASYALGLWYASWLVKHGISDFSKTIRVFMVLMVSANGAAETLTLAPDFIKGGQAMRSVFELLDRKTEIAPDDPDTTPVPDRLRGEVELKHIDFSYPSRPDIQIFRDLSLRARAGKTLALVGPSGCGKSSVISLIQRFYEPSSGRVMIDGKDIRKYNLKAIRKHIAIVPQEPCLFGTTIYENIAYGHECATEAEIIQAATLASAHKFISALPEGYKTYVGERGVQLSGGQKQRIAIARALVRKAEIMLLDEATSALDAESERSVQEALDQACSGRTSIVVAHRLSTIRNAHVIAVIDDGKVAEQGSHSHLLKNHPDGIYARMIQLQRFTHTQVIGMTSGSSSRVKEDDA

ABCB1-YFP P1.008G = target: T2, ABCB1-YFP P1.008G (Arabidopsis, UniProt Q9ZR72 1-1286, P1.008G); test: FRET or BRET
T2 sequence: T1 sequence with A1007E, P1008G

B1: TWD1-Rluc (natural protein)
chain: MDESLEHQTQTHDQESEIVTEGSAVVHSEPSQEGNVPPKVDSEAEVLDEKVSKQIIKEGHGSKPSKYSTCFLHYRAWTKNSQHKFEDTWHEQQPIELVLGKEKKELAGLAIGVASMKSGERALVHVGWELAYGKEGNFSFPNVPPMADLLYEVEVIGFDETKEGKARSDMTVEERIGAADRRKMDGNSLFKEEKLEEAMQQYEMAIAYMGDDFMFQLYGKYQDMALAVKNPCHLNIAACLIKLKRYDEAIGHCNIVLTEEEKNPKALFRRGKAKAELGQMDSARDDFRKAQKYAPDDKAIRRELRALAEQEKALYQKQKEMYKGIFKGKDEGGAKSKSLFWLIVLWQWFVSLFSRIFRRHRVKAD
reduction of the BRET ratio against Wt ABCB1-YFP (ABCB1-YFP E1.007A): ~39% | reduction of the BRET ratio against Wt ABCB1-YFP (ABCB1-YFP P1.008G): ~17%
